Laboratory results from patent publication US20220403048A1 (CANCER RESEARCH TECHNOLOGY, published 2022).

Key:
[1] = molecular target: T1, biotinylated recombinant cynomolgus monkey trimeric ARG2 enzyme (Avi-cynoARG2-His10) (cynomolgus monkey, UniProt P78540 23-354 (human entry), biotinylated); experiment: BLI (OctetRED), biotinylated ARG on streptavidin tip, Fab as analyte, 1:1 fit
T1 construct: also called cynomolgus ARG2
T1 chain: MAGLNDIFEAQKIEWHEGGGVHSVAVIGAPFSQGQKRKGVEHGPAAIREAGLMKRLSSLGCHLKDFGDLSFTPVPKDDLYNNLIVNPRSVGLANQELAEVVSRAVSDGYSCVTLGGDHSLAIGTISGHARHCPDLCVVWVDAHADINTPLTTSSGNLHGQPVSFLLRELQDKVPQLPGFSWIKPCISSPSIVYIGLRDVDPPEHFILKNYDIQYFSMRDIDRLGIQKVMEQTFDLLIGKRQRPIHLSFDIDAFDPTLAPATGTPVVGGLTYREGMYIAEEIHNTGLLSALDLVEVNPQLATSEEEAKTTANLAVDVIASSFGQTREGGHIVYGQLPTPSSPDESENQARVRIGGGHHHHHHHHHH
Procedure: (§1) An Octet Kinetics Buffer (PBS containing 0.01% BSA and 0.002% Tween20) is typically used as the diluent buffer for the analyte samples and as the flow buffer during the dissociation phase. The experimental data is recorded over time as shift in interference pattern (nm) over time, which is directly proportional to the optical thickness at the biosensor tip, which in turn is an approximate measure of the mass of analyte bound. The proprietary Octet Data Analysis software package can then be used to process data and fit binding models to the data sets. Returned association (kₐ, M⁻¹ s⁻¹) and dissociation (kd, s⁻¹) rate constants allow calculation of dissociation (KD, M) affinity constants.
(§2) The affinity of binding between the Fab of C0020187 and human ARG2, cynomolgus ARG2 and human ARG1 was estimated using assays in which the biotinylated ARG antigen was captured on a streptavidin sensor tip. A fresh sensor tip was used for each measurement and no regeneration was used. A series of dilutions of the C0020187 Fab (3.25-240 nM) were individually placed in contact with the ligand surface for a sufficient amount of time to observe sensorgrams that could be fitted to an appropriate binding model with confidence (typically 5 minutes), followed by an appropriate length of dissociation time (typically 10 minutes). Blank reference (0 nM Fab) data were subtracted from each dataset to reduce the impact of any buffer artefacts or non-specific binding effects. An appropriate binding model was then fitted simultaneously to the data from each analyte titration using the Octet Evaluation software.
(§3) Example results for C0020187 are shown in Table 9, showing the association rate constants (kₐ), dissociation rate constants (kd) and dissociation constants (KD). These parameters were derived from a 1:1 binding fit to the data.

[2] = molecular target: T2, biotinylated recombinant human trimeric ARG2 enzyme (Avi-huARG2-His10) (human, UniProt P78540 23-354, biotinylated); experiment: as above
T2 construct: also called avi-Arg2-His10; bio-ARG2
T2 chain: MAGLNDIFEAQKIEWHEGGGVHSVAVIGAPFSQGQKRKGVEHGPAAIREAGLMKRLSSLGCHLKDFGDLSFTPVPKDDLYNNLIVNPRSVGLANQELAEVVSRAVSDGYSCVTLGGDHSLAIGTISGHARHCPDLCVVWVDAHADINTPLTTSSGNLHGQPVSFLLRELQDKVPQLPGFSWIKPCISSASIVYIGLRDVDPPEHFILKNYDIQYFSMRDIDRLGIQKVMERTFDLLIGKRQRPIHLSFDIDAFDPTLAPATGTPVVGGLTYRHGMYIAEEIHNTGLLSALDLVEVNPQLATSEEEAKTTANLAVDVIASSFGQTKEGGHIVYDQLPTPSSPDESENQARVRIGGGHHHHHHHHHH
Procedure: as §1, §2, §3

[3] = molecular target: T3, biotinylated recombinant human trimeric ARG1 enzyme (Avi-huARG1-His10) (human, UniProt P05089 1-322, biotinylated in HTRF and streptavidin BLI assays); experiment: BLI (OctetRED), biotinylated ARG1 on streptavidin tip
T3 construct: also called Human ARG1; recombinant ARG1
T3 sequence: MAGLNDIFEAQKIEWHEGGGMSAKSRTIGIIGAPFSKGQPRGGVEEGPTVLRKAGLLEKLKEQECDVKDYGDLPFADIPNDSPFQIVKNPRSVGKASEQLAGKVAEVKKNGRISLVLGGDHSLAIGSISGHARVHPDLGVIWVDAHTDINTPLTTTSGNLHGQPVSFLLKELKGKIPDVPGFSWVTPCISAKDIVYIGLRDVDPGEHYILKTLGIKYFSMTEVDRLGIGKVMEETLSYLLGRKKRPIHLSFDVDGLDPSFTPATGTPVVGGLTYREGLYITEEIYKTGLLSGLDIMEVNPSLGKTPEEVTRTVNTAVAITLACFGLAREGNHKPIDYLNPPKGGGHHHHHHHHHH
Procedure: as §2

Kd [1]: 6.26 nM
koff [1]: 0.000631 s⁻¹
kon [1]: 101000 M⁻¹ s⁻¹
Kd [2]: 8.35 nM
koff [2]: 0.000577 s⁻¹
kon [2]: 69200 M⁻¹ s⁻¹
binding result [3]: no binding (tested: 3.25-240 nM Fab)
B1: C0020187 Fab (Fab, V domains shown)
VH: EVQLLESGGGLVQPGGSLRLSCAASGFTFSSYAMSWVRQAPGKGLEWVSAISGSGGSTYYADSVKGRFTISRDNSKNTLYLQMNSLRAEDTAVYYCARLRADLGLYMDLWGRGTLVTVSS
VL: QSVLTQPPSVSAAPGQKVTISCSGSSSNIGNHYVSWYQQLPGTAPKLLIYDNSERPSGIPDRFSGSKSGTSATLGITGLQTGDEADYYCGTWDSSLSALVFGGGTKLTVL
notes: Human Fab (CH1 and part of the hinge; light chain constant domain); also called Fab of C0020187
